Data taken from a protein production outcome set (Wang et al. 2014).

experiment: label from the status in PepcDB records

Sequence | protein production
MLLEQQKQLISLIQAAVAQCLPEAQAQVQLERPKVAAHGDIATNVAMQLAKPARRNPRELAQGIVDALMAQPQARELIQDAEIAGPGFINFRLTPAARQAVVQAVASQADA | failed
MLLFTPGPVAINEEMRTSFSQPMPHHRTKDFEKIFQSVRENLKKMTGLEEVLLLSSSGTGAMEASVISLCQKELLFVNAGKFGERFGKIAKAHSIKAHELVYEWDTPAQVDEILSVLKANPNIDAFCIQACESSGGLRHPVEKIAQAIKETNPNVFVIVDAITALGVEPLEITHVDALIGGSQKAFMLPPAMSLVALSQNAIERIEERNVGFYFNLKSELKNQRNNTTSYTAPILHTLGLQRYFELVQNLGGFEALYRETKKAALATQKAVLALGLKIFPKSPSLSMTTIVNEHAKELRNLLKEKYQVQFAGGQEPYKDALIRINHMGIIPVYKSAYALNALELALNDLDLREFDGVANATFLKQYYGI | failed
MLLKILVKLIILDSSCSFLERFKLIIDCYTNKDIPDIDRQLPIWMLWRIWKSRNLSVYQHKSSTWREDFIKTVNDATEWALVWTIDSTTNIQTRQVQSRTHHSAWTRPKEDFVKCNFDCKFSKNNNVSQAGRSKGQHCSMSMEAELQALVMAMQHVWSKGYKKVIFEGDNLRLSSFLRKIKPTSKFTTGSEKIIIRKKGLAMLNSIGQEEKTTK | failed
MLLKQRINANVLVQDGDEPSEDPNELIKQVFALTQESNQLICRIHSTNAQAKLEDGKILLSLLSLRDSYAEQHKILIDAIANTHREPDRYSSREIKWKKVIPVSSLQKQADDISAKLRDLNVKIQAANWQIDLINLEHHHHHH | failed
MLLNEIPWTIPLTVRLSNGLTHTFASVYEALDFLENEWPLRKGERYERAVRTCRRALNRMTPAAVAREAFIAACLEAGMPLVMAPPAREPQGDTVKAAHTA | not failed
MLLPRMLEEVVLAVPARDYDRVVAGLAVEGIFHVDSPPQGVKGEVDRSYRALLTQASERSSRIRQYFDLAGVEPYRVSGVEIEVGGWGESWKRYLEKYSGVEKFYSGLLEEYSEAEARLKELLDIEARIAPVAHLDVDIARLYRSGAFDFAVYYGSYSEGLESRVGEIVSRVGGLAAVEASGGSVVVAVAVPKGALSKISPEILRLNLSIYTPPEGVPGSPREAMEYIRGEKARLGRRLVSIQEMASERLGELAEFYTVVTAFENIFKFLVSTLRRGETRIVRGFVDVRDSGRLRSIVDRMTRGSYVLLSLGVRRGGEAPIPSKVDLPQFLKPFSRVVELYGYPEPNEIVPTVFLAITLPLTFALMFPDAGQGLLVLLFSLFYLRRVSRDWAYVIAVMGGASVVSGLLAGEVFGPLVSKMLGLPELWYRLGLETPPYAMPTYAIDHGEEELVPVLVYRALNVSLFMGAFMLSFGTFLGVVNGVIKRDWVGLVESRLPRFLLFASITGPFLVYMDAGEAGSVLRQALLELGGDSIAAKLVLAGSVLGLAWMLLAGPIIYMLEGHSPLAGLANSFLEAYESLLMLVGNIPSFLRIMALALAHSSLMFVIYYLTVMIMQGGILADVVGALLYVGGNLAVAAMEGLLAFAHASRLHFYEWFSKFYSGTGVPYTPIKVEGVRIKIAGQTF | failed
MLLQPSRVRSGGRARWHAVQCAAAVTIGRDHPRHRYTRAMSSPLSCRLGCAACCIAPSISSPIPGMPNGKPAGVACVQLDAQLGCRLFGSPLRPAVCGNLRPSLEMCGTSRKQALSMLAALERATQP | failed
MLLSGWGKFVRWLLVLLSILVIIIGINLILDGVYGFGTFSTTQMYQVAKDPLIGVLIGILATALVQSSTTTTTLTVTAVGTGIVSVPVAIPIILGANIGTTITAMLVAFSYVGERREFKRAFTVAAMHVWFNVLVILVLFVVELLFHPFRTISGAIATEITLTTGGSLPTSGVMTKIFDPPTQLLGMNGLIGSIGNPSISAIVCLVVGTILILISVRAMSSQIRTITAATVTSIMDKVINPENSPKATILSNFWSFILGVLFTLMVTASSVTVASMQPVAASGVVKQKPLLGVILGANVGTTVTAMFATFAIVSDQGEFAIQAALIHLIVNFTGALLVLCIPQLANVIIHLAEKTANLTARSYSITLATIVTAYVLVPSAVLMIYFFI | failed
MLLYNKQKKNQNAKGNRILISVTVLGSAGPIRFVAYEDDLVASVIDTALKGYAREGRLPLLGSDFNDFLLYCPMVGPEALSTWDAIGSLGARNFMLCRKPEEKKVEESNGRSDSTINGARKGGSLKAWINKSFNLKVSSH | failed
MLMDGHTHTELCPHGSGEATEKMIQRAIQLGFQRYCITEHAPLPPAFRDQYEGTPAGYTEASLRENQVADYLALANGLKTKYAGQIEISVGFEVDFLPEHVAWTRDFLNTYGPRTQESILSVHFMRGLRQHFWCVDMSTDDFAAGFGQWLKTPQRVFEQYYQTVLASVQADLGPYAPQRIGHMSLVRKYQDYFGLTEPLDVHNLQLVDQTLALVKQQRRQLDLNLAGLYKPYCNDFYPGEQILQRAQKLDIPLVYGSDAHDIASVGRGYHLIKKLIEGLEHHHHHH | failed
MLMHATMAALAVFICFAGNYLTGQSMMERPLVVGLVTGILMGDMKTGVLMGASLEAIFLGNVNIGGVIAAEPVTATTLATTFAIISNVEQKAAMTLAVPIGMLAAFVVMFLKNVFMNIFAPSLDKAAREGNQKMVVTLHYGTWIIYYLIIASISFIGILAGSGPVNLFVESIPQNLMNGLSAAGGLLPAVGFAMLMKLLWDNKLAVFYILGFVLTAYLQLPAVAVAVIGTVICVVSAQRDVEFRDILKRKPAASSAVEGSAKEIEEEDFFA | failed
MLMQYRDLAKNIIKIYQKHGRDWTQLRGDFLHEKIWLDRFLGLLPMSAKVLDLGCGSGTPIAKYLIEQGCQLTGVDTSEVMLDMAQQNFPEQIWINADIRQFSTEQTFDGILAWDSFFHLDPENQRQMFAQFSTHAASGGVLMFTSGPSYGEAIGDMFGGPLYHASLDAAEYRTLLAQYGFETIKMIAEDPECTGHTVWLARKK | failed
MLNAKTSFALLMAVCLIATGVTGYLLGGINPELIQAWLKAAGIWAPVTYVAVYVVATILILPSTALNLTGGAIFGPWMGTFWTSVGAIIAAIAAFIFARTVGREIVAQRLAGRWQAIDAEVRQGAVFYMFAIRLMPILPYGLVNFAAGLTSISFKDYLIGTALGTVPGILPFVLLGSSGLKAIRTGEVLPLVGALALIGMLVGGSTWYRRRRSFPTRKKP | failed
MLNATAFCLAYAGFAALSLGMDRHYEDVFDRALPRRRRLALRSLEWLGLALSLWASAGAWGWNYGTVEWIGILSLAGLLLIWLLTFWPRAALGAGGACALAAPVLALL | failed
MLNFTVGPVMSSEEVRAIGAEQVPYFRTTEFSSTMLENEKFMLEYAKAPEGSKAVFMTCSSTGSMEAVVMNCFTKKDKVLVIDGGSFGHRFVQLCEIHEIPYVALKLEHGKKLTKEKLYEYDNQNFTGLLVNVDETSTAVLYDTMMIGEFCKKNNMFFVCDCVSAFLADPFNMNECGADVMITGSQKVLACPPGISVIVLAPRGVERVEKSKVRTMYFDLKDALKNQERGQTPFTPAVGILLQINERLKEIKKHGGADAEVARIASQAADFRAKIKDLPFELVSESPANGVTSVHPTTANAYDIFLKLKDEYGIWICPNGGEMKDTIFRVGHIGALTHEDNTTLVNAFKDLQKRNLL | not failed
MLNIEIYEEAMCCSTGVCGPEPDETLIKTNQINEYLKQNQIEVQRYNMNNNPNEFIQNKEVIRLIQEKGDEVLPITFIEGNIAKTGAYITQEEADEIITVNQMRNGGCCGGDGCC | not failed
MLNKTASYSEIEMSVVVPKDSKITNIEAVSKLAAPVKNDTSNITDLIEHIKSEKGISITPQKTDSYQDAYNRIKSGDSQAMVLNNAYVSLIELSTPDFKSQIKTIYTYKIKKKINRKNTNHKEGVFNIYISGIDTFGSISTVSRSDVNIIMTVNTNTHKVLLTTTPRDAYVKIPDGGGNQYDKLTHAGLYGVETSMKTLENLYDINLDYYARINFSSFLKLIDLLGGVTVYNDQAFTSKHGNFDFPVGQVTLNSEQALGFVRERYSLQGGDNDRGRNQEKVIAAIINKLASSQSVTKLNSITSQLQTSVQTNMTIDNINDLINNQLSTGQRFTVESQALTGHGSTGELPSYAMPGAQLYMMSIDQSSLSNAKSKIKNTMEELEHHHHHH | not failed
